What is called Kd is a measure of binding affinity in units of concentration.

Here are results for two molecules from PMC4115224, “Real-Time Interaction between TBP and the TATA Box of the Human Triosephosphate Isomerase Gene Promoter in the Norm and Pathology”.

Series [1] has as its target T1, TATA-binding protein (TBP) (human, UniProt P20226 1-339). Description: stopped-flow FRET; kon (0.2 ± 0.1)e6 M-1 s-1; koff (8.9 ± 1.2)e-2 s-1; KA 2.3e6 M-1; 25 C; 25 C; 0.1 uM DNA duplex; TBP 0.1-2 uM (T allele) or 0.4-4 uM (G allele); buffer, salt and pH not given in the material. The following applies: protein: recombinant; label: Cy3/Cy5 FRET pair at the duplex ends.

Series [2] deals with T1, TATA-binding protein (TBP). As to the kind of experiment: stopped-flow FRET; kon (1.1 ± 0.1)e6 M-1 s-1; koff (2.8 ± 0.1)e-3 s-1; KA 3.7e8 M-1; 25 C; 25 C; 0.1 uM DNA duplex; TBP 0.1-2 uM (T allele) or 0.4-4 uM (G allele); buffer, salt and pH not given in the material. The following applies: protein: recombinant; label: Cy3/Cy5 FRET pair at the duplex ends.

T1 sequence (P20226 whole entry): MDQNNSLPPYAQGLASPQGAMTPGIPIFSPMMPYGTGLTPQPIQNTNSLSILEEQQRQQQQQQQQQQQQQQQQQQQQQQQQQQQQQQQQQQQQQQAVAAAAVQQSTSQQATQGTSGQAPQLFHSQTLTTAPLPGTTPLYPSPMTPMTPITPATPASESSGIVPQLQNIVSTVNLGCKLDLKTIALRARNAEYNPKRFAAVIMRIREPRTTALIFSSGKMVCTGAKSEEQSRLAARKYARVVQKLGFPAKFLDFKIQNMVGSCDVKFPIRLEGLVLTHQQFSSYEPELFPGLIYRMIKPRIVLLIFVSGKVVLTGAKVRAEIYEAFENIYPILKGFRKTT

B1: TPI TATA box, -24T>G SNP (G allele) (dsDNA)
DNA 1: GCTCTATAGAAGTGG
DNA 2: CCACTTCTATAGAGC
Take B1: the equilibrium dissociation constant (Kd) in series [1] came out at 400 nM.

B2: TPI TATA box, wild type (T allele) (dsDNA)
DNA 1: GCTCTATATAAGTGG
DNA 2: CCACTTATATAGAGC
Take B2: in series [2], the Kd stood at 2.7 nM.
